Laboratory results: patent US20230399384A1
Read-outs that look alike come from different tables or passages of the source.

How the values were obtained:
Details in all cases: remark: other sources report otherwise
[1] = target: trimeric prefusion S protein of SARS-CoV-2 (SARS-CoV-2), P0DTC2
[2] = target: T1, sCoV2-RBD (Fc-tagged RBD of SARS-CoV-2 S protein) (SARS-CoV-2; human), P0DTC2
[3] = target: T1, sCoV2-RBD (Fc-tagged RBD of SARS-CoV-2 …); remark: listed apart in the source
[4] = target: T1, sCoV2-RBD (Fc-tagged RBD of SARS-CoV-2 …); test: ELISA titration on coated sCoV2-RBD
[5] = target: T1, sCoV2-RBD (Fc-tagged RBD of SARS-CoV-2 …); test: BLI (Octet) blocking of ACE2 binding to captured sCoV2-RBD

B1: CoV2-14 (antibody, V domains shown)
VH: EVQLQQSGPGLVKPSQTLSLTCAISGDSVSSNSAAWNWIRQSPSRGLEWLGRTYYRSKWYNDYAVSVKSRITINPDTSKNQFSLQLNSVTPEDTAVYYCAREEQQLVHDYYYYGMDVWGQGTMVTVSS
VL: QAVVTQPASVSGSPGQSITISCTGTSSDIGAYNYISWYQQHPGKAPKLIIYEVSNRPSGISYRFSGSKSGNTASLTISGLQAEDEANYYCSSYAGSISFGGGTKVTVL
For B1, the Kd [1] was 0.22 nM, the EC50 (read off the curve) [2] was 0.5 nM and the EC50 [3] was 0.58 nM. For the same binder, the EC50 [4] was 0.58 nM and the IC50 [5] was 3.14 µg/mL.
